Measurements as given in patent US20170044251A1.

Columns and labels:
Assay in all cases: ELISA on coated peptide-OVA conjugate, FCA control egg yolk sample, dilution not given
[1] = target: IL-10 Peptide #1 (SEQ ID NO: 1) conjugated to hen ovalbumin (avian animals, such as chickens, quail, and turkeys; hen) (UniProt P01012)
[2] = target: IL-10 Peptide #3 (SEQ ID NO: 7) conjugated to hen ovalbumin (avian animals, such as chickens, quail, and turkeys; hen) (UniProt P01012)
[3] = target: IL-10 Peptide #4 (SEQ ID NO: 10) conjugated to hen ovalbumin (avian animals, such as chickens, quail, and turkeys; hen) (UniProt P01012)

optical density [1]: 0.56 OD 450 nm
optical density [2]: 0.499 OD 450 nm
optical density [3]: 0.6 OD 450 nm
Substance: FCA control egg antibody
